From doi:10.1101/2022.01.11.475947

Target: Fusion protein of Nipah virus (F-clamp) (Nipah virus)
Assay: SEC

Fusion protein of Nipah virus (F-clamp)
stoichiometry N: 3
